As a reminder, the Kd is the concentration at which binding is half-saturated. Read a low Kd as a tighter complex. Broadly, the koff is the rate constant with which the complex falls apart. Lower therefore signals a long-lived complex. One may read the kon as the rate constant with which the complex forms. Lower therefore signals slow association.

Assay [1] addresses T1, LILRB2 (UniProt Q8N423 22-460, limits assumed).
T1 construct: Panning used recombinantly expressed LILRB2-His; also called Leukocyte Immunoglobulin-like Receptor subfamily B member 2; LILRB2-His
Kind of assay: ELISA of phage display clone on LILRB2. In general terms: In an ELISA, binding on a coated surface is turned into a signal by an enzyme label.

Assay [2] has as its target T1, LILRB2. Kind of assay: BLI, Octet Red96. Here is the method:
Kinetic binding parameters (KD, kₒₙ, and koff) were determined using Octet Red96 instrument (ForteBio; Fremont, CA).
Background: In BLI a coated tip is dipped into the sample, and binding shifts an interference pattern.

Assay [3] deals with T2, LILRB2-chimeric reporter receptor on reporter cells (UniProt Q8N423 22-460). Kind of assay: cell-based or functional assay.
T2 sequence (Q8N423 22-460, change not shown): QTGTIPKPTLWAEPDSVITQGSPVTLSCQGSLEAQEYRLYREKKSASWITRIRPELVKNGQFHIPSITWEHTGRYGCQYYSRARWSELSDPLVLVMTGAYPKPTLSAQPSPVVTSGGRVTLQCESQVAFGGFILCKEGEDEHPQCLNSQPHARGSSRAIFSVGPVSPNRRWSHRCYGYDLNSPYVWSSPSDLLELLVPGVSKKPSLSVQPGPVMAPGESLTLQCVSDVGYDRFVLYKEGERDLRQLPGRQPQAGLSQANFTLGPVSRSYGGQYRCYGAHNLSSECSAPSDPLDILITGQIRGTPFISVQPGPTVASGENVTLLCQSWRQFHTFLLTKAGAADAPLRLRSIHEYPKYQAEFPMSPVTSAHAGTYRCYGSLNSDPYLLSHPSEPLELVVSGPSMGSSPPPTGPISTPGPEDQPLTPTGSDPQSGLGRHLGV
Assay [4] concerns the target T3, recombinantly produced LILRB2 extracellular domain (ECD) protein (UniProt Q8N423 22-460, limits assumed).
T3 construct: extracellular domain; A LILRB2-His protein was used for panning; also called plate-coated LILRB2; LILRB2 ECD
Kind of assay: ELISA, plate-coated LILRB2, anti-human F(ab)2 HRP detection. On the procedure: Antibody binding affinity to LILRB2 were measured by ELISA. Increasing concentrations of purified LILRB2 antibodies were incubated with plate-coated LILRB2. The bound antibody was detected by anti-human F(ab)2 HRP, and the signals were quantified as OD₄₅₀ values. EC₅₀ values (Table 5) were calculated using non-linear curve fitting function Sigmoidal dose-response (variable slope) in GraphPad Prism.

Assay [5] has as its target T2, LILRB2-chimeric reporter receptor on …. In words: cell-based or functional assay. The source holds these as a separate data set.
The target in assay [6] is T4, LILRB2 expressed on the surface of HEK293T cells (UniProt Q8N423 22-597, limits assumed).
T4 construct: whole, on cells; also called HEK293T cells that express LILRB2
T4 sequence (Q8N423 22-597 limits assumed): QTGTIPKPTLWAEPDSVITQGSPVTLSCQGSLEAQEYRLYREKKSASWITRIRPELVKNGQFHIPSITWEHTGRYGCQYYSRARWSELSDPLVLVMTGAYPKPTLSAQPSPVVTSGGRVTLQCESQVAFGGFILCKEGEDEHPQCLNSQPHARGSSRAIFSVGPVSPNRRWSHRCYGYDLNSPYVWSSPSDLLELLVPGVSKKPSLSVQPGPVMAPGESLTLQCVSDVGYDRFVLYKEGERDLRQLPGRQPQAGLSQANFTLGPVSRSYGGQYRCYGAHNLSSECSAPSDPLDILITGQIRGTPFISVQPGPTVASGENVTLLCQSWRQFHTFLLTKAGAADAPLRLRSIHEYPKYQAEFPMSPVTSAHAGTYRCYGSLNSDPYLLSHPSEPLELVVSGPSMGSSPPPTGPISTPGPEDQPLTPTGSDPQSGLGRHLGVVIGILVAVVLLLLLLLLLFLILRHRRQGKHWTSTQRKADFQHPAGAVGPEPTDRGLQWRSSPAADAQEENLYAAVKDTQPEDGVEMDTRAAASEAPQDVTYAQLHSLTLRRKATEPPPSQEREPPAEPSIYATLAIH
Kind of assay: flow cytometry on HEK293T cells expressing LILRB2, MFI fold over control; sheet also prints 95%CI=0.19-0.31 µg/mL.

T3 sequence (Q8N423 22-460 limits assumed): as the sequence (Q8N423 22-460, change not shown) above
T1 sequence (Q8N423 22-460 limits assumed): as the sequence (Q8N423 22-460, change not shown) above

B1: NeuB2-19 (antibody, V domains shown)
VH: QVQLVESGGGVVRPGGSLRLSCAASGFTFDDYGMSWVRQAPGKGLEWVSGINWNGGSTGYADSVKGRFTISRDNAKNSLYLQMNSLRAEDTALYYCAREGDGAFDIWGQGTLVTVSS
VL: QAVVTQPPSASGTPGQRVTISCSGSGSNIRSNGVTWYQQFPGTAPKLLIYDNNQRPSGVPGRFSGSKSGTSGSLAISGLQSEDEADYYCAAWDDNLNAWVFGAGTQLTVL
notes: Human antibody from a phage library; also called 19-HC/19-LC
Regarding B1, the “OD450 in ELISA assay” value with LILRB2 [1] came to 0.663.

B2: NeuB2-55 (antibody, V domains shown)
VH: EVQLVQSGAEVKKPGSSVKVSCKASGGTFSSYAISWVRQAPGQGLEWMGGIIPIFGTANYAQKFQGRVTITADESTSTAYMELSSLRSEDTAVYYCARGVDQVDYWGQGTLVTVSS
VL: QAVVTQPASVSGSPGQSITISCTGTSSDVGGYNYVSWYQQHPGKAPKLMIYDVSNRPSGVSNRFSGSKSGNTASLTISGLQAEDEADYYCSSYTSSSTPYVFGTGTKVTVL
notes: also called Ab55; 55-HC/55-LC
With B2, in the assay with LILRB2 [2], binding was characterised by a dissociation constant (Kd) of 56000 pM, the koff came out at 0.00723 s⁻¹ and the kon stood at 129000 M⁻¹ s⁻¹. In addition, the “IC50 (M); blocking of PS-LILRB2 interaction” value (from here on “IC50 (M); blocking”) in assay [3] worked out at 3.35e-10 M. Also, the EC50 in assay [4] was found to be 175 pM. For the same molecule, in the assay with LILRB2 [1], the “OD450 in ELISA assay” value turned out to be 0.886. In addition, the “IC50 (M); GFP signal of LILRB2-chimeric reporter cells on plate-coated oAβ” value (shortened to “IC50 (M); GFP signal”) in assay [5] was 1.89e-09 M.

B3: NeuB2-93 (antibody, V domains shown)
VH: QVQLMQSGAEVKKPGSSVKVSCKASGGRFSSNVMSWVRQAPGQGLEWMGGIIPIFGTPKYAQKFQGRVTITADKSTSTAYMELSSLRSEDTAVYYCASGSTPFDAFDIWGQGTMVTVSS
VL: QPVLTQPASVSGSPGQSITISCTGTSSDVGGYNYVSWYQQHPGKAPKLMIYEVSNRPSGVSNRFSGSKSGNTASLTISGLQAEDEADYYCSSYTSSSTPWVFGGGTKVTVL
notes: also called Ab93; 93-HC/93-LC
In the assay with LILRB2 [2], B3 gave a Kd of 83900 pM, a koff of 0.0103 s⁻¹ and an on-rate constant (kon) of 123000 M⁻¹ s⁻¹. For the same molecule, the “IC50 (M); blocking” value in assay [3] worked out at 4.45e-10 M. Also, the EC50 in assay [4] worked out at 159 pM. Also, the “OD450 in ELISA assay” value in the assay with LILRB2 [1] is 0.543. Further, the “IC50 (M); GFP signal” value in assay [5] was 3.81e-09 M.

B4: NeuB2-110 (antibody, V domains shown)
VH: QVQLVESGGGLVKPGGSLRLSCGISGFTFSDYYMSWIRQAPGKGLEWVSFIGTSGSTIYYADSVKGRFTISRDNANNSLFLQMNSLTVEDTAVYYCAREATSGTYFDYWGQGTLVSVSS
VL: QAVVTQPASVSGSPGQSITISCTGTSSDVGGYNYVSWYQQHPGKAPKLMIYEVTNRPSGVSNRFSGSKSGNTASLTISGLQAEDEADYYCSSYTSSSTPYVFGTGTKVTVL
notes: Human antibody from a phage library; also called 110-HC/110-LC
On to B4, for which the “OD450 in ELISA assay” value with LILRB2 [1] is 0.972.

B5: NeuB2-60 (antibody, V domains shown)
VH: QVQLQESGPGLVKPSGTLSLTCAVSGGSITSSNWWSWVRQPPGKGLEWIGDISHSGSTNYNPSLKGRVTMSVDRSKNQFFLKLSSVTAADTAMYYCARAFHGMDVWGQGTTVTVSS
VL: QSVLTQPPSVSEAPRQRVTISCSGSSSNIANNAVNWYQQLPGKAPKLLIYYDDLLASGVSDRFSGSRSGTSAALAISGLQSEDEADYYCATWDDDLNGPIFGGGTKVTVL
notes: also called Ab60; 60-HC/60-LC
As to B5, in the assay with LILRB2 [2], binding was put at a Kd of 24100 pM, the off-rate (koff) was 0.00512 s⁻¹ and the kon came to 212000 M⁻¹ s⁻¹. The “IC50 (M); blocking” value in assay [3] is 3.21e-10 M. Also, in assay [4], the EC50 turned out to be 161 pM. The “OD450 in ELISA assay” value with LILRB2 [1] is 0.744. For the same molecule, the “IC50 (M); GFP signal” value in assay [5] is 9.82e-10 M.

B6: NeuB2-40 (antibody, V domains shown)
VH: QVQLVQSGAEVKKPGASVKVSCKASGYTFTNYGISWVRQAPGQGLEWMGWISGDAGDTKFAQKFQGRVTMTTDTSTTTTYMELRSLRSDDTAVYYCARDGEYIPMFRGFDNYYGLDVWGQGTTVTVSS
VL: QPVLTQPPSVSEAPRQRVTISCSGSSSNIGKNAVNWYQQFPGKAPKLLIYYDDLLPSGVSDRFSGSRSGTSASLAISGLQSEDEADYYCAAWDDRLKGYVFGTGTQLTVL
notes: also called Ab40; 40-HC/40-LC
With B6, in the assay with LILRB2 [2], binding was characterised by a dissociation constant (Kd) of 19200 pM, the koff is 0.00471 s⁻¹ and the on-rate (kon) came to 245000 M⁻¹ s⁻¹. In assay [3], the “IC50 (M); blocking” value is 3.54e-10 M. Besides, in assay [4], the EC50 came out at 66.4 pM. Also, the “OD450 in ELISA assay” value with LILRB2 [1] was found to be 0.276. Further, the “IC50 (M); GFP signal” value in assay [5] was 3.6e-09 M.

B7: NeuB2-9 (antibody, V domains shown)
VH: QVQLVQSGAEVKKPGASVKVSCKASGYTFTSYAMHWVRQAPGQRLEWMGWINAGNGNTKYSQKFQGRVTITRDTSASTAYMELSSLRSEDTAVYYCARDFMGYCSSTSCYGVTGAFDIWGQGTMVTVSS
VL: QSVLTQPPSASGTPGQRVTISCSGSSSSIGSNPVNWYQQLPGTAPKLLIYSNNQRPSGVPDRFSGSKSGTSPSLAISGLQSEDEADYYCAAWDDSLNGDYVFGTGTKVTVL
notes: Human antibody from a phage library; also called 9-HC/9-LC
As for B7, the “OD450 in ELISA assay” value with LILRB2 [1] was 0.515.

B8: NeuB2-37 (antibody, V domains shown)
VH: QVQLMQSGAEVKKPGSSVKVSCKASGGTFSSYAISWVRQAPGQGLEWMGGIIPIFGTANYAQKFQGRVTITADESTSTAYMELSSLRSEDTAVYYCARGNHVLRFLEWLPNWFDPWGQGTLVTVSS
VL: not shown
notes: also called Ab37; 37-HC/37-LC
With B8, in the assay with LILRB2 [2], binding was put at a Kd of 8450 pM, the koff amounted to 0.0004 s⁻¹ and the association rate constant (kon) stood at 47400 M⁻¹ s⁻¹. In addition, the “IC50 (M); blocking” value in assay [3] turned out to be 2.93e-10 M. Moreover, the EC50 in assay [4] amounted to 658 pM. In addition, the “OD450 in ELISA assay” value in the assay with LILRB2 [1] turned out to be 0.417. Also, in assay [5], the “IC50 (M); GFP signal” value turned out to be 8.62e-10 M.

B9: NeuB2-128 (antibody, V domains shown)
VH: QVQLQQSGAEVKKPGSSVKVSCKASGGTFSSYAISWVRQAPGQGLEWMGGIIPIFGTANYTQKFQGRVTITADESTSTAYMELSSLRSEDTAVYYCARGPSGSPYGMDVWGQGTTVIVSS
VL: not shown
notes: Human antibody from a phage library; also called 128-HC/128-LC
Turning to B9, the “OD450 in ELISA assay” value with LILRB2 [1] came to 0.446.

B10: NeuB2-8 (antibody, V domains shown)
VH: QLQLQESGPGLVKPSQTLSLTCAISGGNVSSKSAAWNWIRQSPSRGLEWLGRTYYRSKWYNDYAVSVKSRITINPDTSKNQFSLQLKSVTPEDTAVYYCARSLGEGWFPYFYGMDVWGQGTTVTVSS
VL: QSVLTQPASVSGSPGQSITISCTGTNRDVGGYDYVSWYQQHPGKAPKLMIYGVSNRPSGISNRFSGSKSGSTASLTISGLQVEDEAAYYCSSYTASRTVVFGGGTKVTVL
notes: Human antibody from a phage library; also called 8-HC/8-LC
For the molecule B10, in the assay with LILRB2 [1], the “OD450 in ELISA assay” value amounted to 0.548.

B11: NeuB2-29 (antibody, V domains shown)
VH: QVQLVETGGGVVQPGRSLRLSCAASGFTFSDYAMHWVRQAPGKGLEWVTLISYDGSQKYYADSVKGRFTISRDDSKNTVDLQMNSLKAEDTAVYYCAKFPSLNDNVGFDVWGQGTMVTVSS
VL: QSVLTQPPSVSGAPRERVTISCSGSTSNIENNAVNWYQQLPGKAPKLLIYYDDLVPSGVSDRFSGSKSGTSASLAISGLQSGDEAYYYCAVWDDSLNGPVFGGGTKVTVL
notes: also called Ab29; NewuB2-29
Consider B11, for which, in the assay with LILRB2 [2], the Kd is 9000 pM, the off-rate constant (koff) is 0.00151 s⁻¹ and the on-rate (kon) was 168000 M⁻¹ s⁻¹. Besides, the EC50 in assay [6] amounted to 0.24 µg/mL. Further, the “IC50 (M); blocking” value in assay [3] is 1.42e-10 M. In assay [4], the EC50 is 137 pM. The “OD450 in ELISA assay” value in the assay with LILRB2 [1] came out at 0.819. Besides, the “IC50 (M); GFP signal” value in assay [5] amounted to 3.44e-10 M.

B12: NeuB2-80 (antibody, V domains shown)
VH: QVQLVQSGAEVKKPGASVKVSCKASGYTFTSYGISWVRQAPGQGLEWMGWISAYNGNTNYAQKLQGRVTMTTDTSTSTAYMELRSLRSDDTAVYYCARDGGGGYFDYWGQGTLVTVSS
VL: QAVVTQPPSASGTPGQRITISCSGSSSNIGKNIVNWYQQVPGAAPKLLIYNNSQRPSGVPDRFSGSKSGTSASLAISGLQSEDEADYYCAAWDDSLRSWLFGGGTKVTVL
notes: Human antibody from a phage library; also called 80-HC/80-LC
On to B12, for which the “OD450 in ELISA assay” value with LILRB2 [1] was 0.64.

B13: NeuB2-13 (antibody, V domains shown)
VH: QVQLVQSGAEVKKPGASVKVSCKASGYTFTSYYMHWVRQAPGQGLEWMGIINPSGGSTSYAQKFQGRVTMTRDTSTSTVYMELSSLRSEDTAVYYCAREDWGPFDYWGQGTTVTVSS
VL: DIQMTQSPSSLSASVGDRVTITCRASQSISNFVNWYQQKPGEVPKLLIYGASSLQSGVPSRFSGSGSGTDFTLTISSLQPEDFATYYCQQGYSVPLTFGGGTKVEIK
notes: Human antibody from a phage library; also called 13-HC/13-LC
B13: the “OD450 in ELISA assay” value in the assay with LILRB2 [1] was determined as 0.552.

For the origin of these results see patent US20240392001A1 (University of Texas, published 2024).
